According to the supplement of paper PMC9233669:
This sample holds only a part of the variants without activity.

Key:
biotinyl-Phe-oxazolone = assay: self-aminoacylation, catalytic enhancement (BFO) (fold over background); higher = more active; k-Seq, kA / k0A0; sequences stand for … in GGGAAUGGAUCCACAUCUACGAAUUC…UUCACUGCAGACUUGACGAAGCUG
How it was run: (§1)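 Catalytic enhancement equals the median kA over the uncatalyzed rate, the latter read from the low-activity peak of a bimodal Gaussian fit. Values of kA came from fitting each sequence's fraction reacted to a pseudo-first-order model, with 1000 bootstraps. Reacted RNA was captured with streptavidin and quantified by triplicate qPCR and Illumina sequencing after 90 minutes at room temperature with 2–1250 μM biotinyl-aminoacyl-oxazolone and 0.43 μM mutagenized RNA pools bearing a 21-nt variable region.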

biotinyl-Trp-oxazolone = assay: self-aminoacylation, catalytic enhancement (BWO) (fold over background); higher = more active; k-Seq, kA / k0A0; sequences stand for … in GGGAAUGGAUCCACAUCUACGAAUUC…UUCACUGCAGACUUGACGAAGCUG
How it was run: as §1

biotinyl-Met-oxazolone = assay: self-aminoacylation, catalytic enhancement (BMO) (fold over background); higher = more active; k-Seq, kA / k0A0; sequences stand for … in GGGAAUGGAUCCACAUCUACGAAUUC…UUCACUGCAGACUUGACGAAGCUG
How it was run: as §1

biotinyl-Ile-oxazolone = assay: self-aminoacylation, catalytic enhancement (BIO) (fold over background); higher = more active; k-Seq, kA / k0A0; sequences stand for … in GGGAAUGGAUCCACAUCUACGAAUUC…UUCACUGCAGACUUGACGAAGCUG
How it was run: as §1

biotinyl-Leu-oxazolone = assay: self-aminoacylation, catalytic enhancement (BLO) (fold over background); higher = more active; k-Seq, kA / k0A0; sequences stand for … in GGGAAUGGAUCCACAUCUACGAAUUC…UUCACUGCAGACUUGACGAAGCUG
How it was run: as §1

biotinyl-Val-oxazolone = assay: self-aminoacylation, catalytic enhancement (BVO) (fold over background); higher = more active; k-Seq, kA / k0A0; sequences stand for … in GGGAAUGGAUCCACAUCUACGAAUUC…UUCACUGCAGACUUGACGAAGCUG
How it was run: as §1

| Sequence | self-aminoacylation (biotinyl-Phe-oxazolone) | self-aminoacylation (biotinyl-Trp-oxazolone) | self-aminoacylation (biotinyl-Met-oxazolone) | self-aminoacylation (biotinyl-Ile-oxazolone) | self-aminoacylation (biotinyl-Leu-oxazolone) | self-aminoacylation (biotinyl-Val-oxazolone) |
| --- | --- | --- | --- | --- | --- | --- |
| AUAUUUGCUAAUAGUCGCAAG [Fam3.1 aminoacylation ribozyme variant] | 2.04 | 1.75 | 1.35 | 1.57 | 1.37 | 1.49 |
| AUCACCCAGGUCAUCGAGUGA [Fam2.1 aminoacylation ribozyme variant] | 30.4 | 8.46 | 7.75 | 4.04 | 8.69 | 4.61 |
| AUCACCCUAGUCAUCGAGUGA [Fam2.1 aminoacylation ribozyme variant] | 49.7 | 7.4 | 8.04 | 4.35 | 8.78 | 4.27 |
| AUCACCCUCGUCAUCGAGUGA [Fam2.1 aminoacylation ribozyme variant] | 19.7 | 3.31 | 3.54 | 2.12 | 3.13 | 2.36 |
| AUCACCCUGGGCAUCGAGUGA [Fam2.1 aminoacylation ribozyme variant] | 69.7 | 11.2 | 10.6 | 4.64 | 13.1 | 5.3 |
| AUCACCCUGGUCAUCGAGUAA [Fam2.1 aminoacylation ribozyme variant] | 6.38 | 2.89 | 3.93 | 2 | 3.44 | 2.21 |
| AUCACCCUGGUCAUCGAGUGA [Fam2.1 aminoacylation ribozyme variant] | 154 | 28.4 | 27.8 | 10.6 | 27 | 11.3 |
| AUCACCCUGGUCAUCGAGUGU [Fam2.1 aminoacylation ribozyme variant] | 94.9 | 20.2 | 22.5 | 7.23 | 21.5 | 8.64 |
| AUCACCCUGGUCAUCGGGUGA [Fam2.1 aminoacylation ribozyme variant] | 33.4 | 14.1 | 9.05 | 5.17 | 9.48 | 5.27 |
| AUCACCCUGGUCAUCGUGUGA [Fam2.1 aminoacylation ribozyme variant] | 34.7 | 4.97 | 3.98 | 1.81 | 5.08 | 2.31 |
| AUCACCCUGGUCAUCUAGUGA [Fam2.1 aminoacylation ribozyme variant] | 85 | 12.9 | 12.8 | 5.3 | 11.7 | 5.63 |
| AUCACCCUGGUCCUCGAGUGA [Fam2.1 aminoacylation ribozyme variant] | 51.6 | 7.28 | 6.62 | 4.01 | 8.29 | 4.54 |
| AUCACCCUGGUCGUCGAGUGA [Fam2.1 aminoacylation ribozyme variant] | 5.78 | 1.41 | 1.39 | 1.24 | 2.67 | 1.31 |
| AUCACCCUGGUCUUCGAGUGA [Fam2.1 aminoacylation ribozyme variant] | 50.3 | 9.14 | 8.01 | 3.81 | 8.44 | 4.74 |
| AUCACCCUGGUGAUCGAGUGA [Fam2.1 aminoacylation ribozyme variant] | 54.1 | 8.41 | 7.25 | 3.57 | 8.91 | 3.87 |
| AUCACCCUUGUCAUCGAGUGA [Fam2.1 aminoacylation ribozyme variant] | 59.7 | 10.7 | 9.48 | 4.65 | 10.1 | 4.91 |
| AUCACCUUGGUCAUCGAGUGA [Fam2.1 aminoacylation ribozyme variant] | 5.13 | 7.19 | 5.76 | 3.39 | 6.86 | 3.35 |
| AUCCACCGAGGUCAUCGGGUG [Fam2.2 aminoacylation ribozyme variant] | 125 | 7.06 | 9.91 | 5.2 | 13.4 | 6.67 |
| AUCCACCUAGGCCAUCGGGUG [Fam2.2 aminoacylation ribozyme variant] | 27.4 | 6.22 | 3.46 | 3.55 | 5.49 | 4.12 |
| AUCCACCUAGGUAAUCGGGUG [Fam2.2 aminoacylation ribozyme variant] | 27.6 | 5.34 | 3.45 | 3 | 4.49 | 3.1 |
| AUCCACCUAGGUCAGCGGGUG [Fam2.2 aminoacylation ribozyme variant] | 31.2 | 4.43 | 3.79 | 3.68 | 5.2 | 4.02 |
| AUCCACCUAGGUCAUCGGGCG [Fam2.2 aminoacylation ribozyme variant] | 20.9 | 3.38 | 5.3 | 4.91 | 5.85 | 3.87 |
| AUCCACCUAGGUCAUCGGGUA [Fam2.2 aminoacylation ribozyme variant] | 275 | 26.5 | 39.4 | 20.2 | 53.2 | 18.1 |
| AUCCACCUAGGUCAUCGGUUG [Fam2.2 aminoacylation ribozyme variant] | 5.85 | 1.84 | 1.5 | 1.31 | 1.41 | 1.52 |
| AUCCACCUAGGUCAUUGGGUG [Fam2.2 aminoacylation ribozyme variant] | 24.6 | 3.8 | 3.76 | 3.51 | 3.86 | 3.24 |
| AUCCACCUAGGUCCUCGGGUG [Fam2.2 aminoacylation ribozyme variant] | 31.1 | 6.83 | 6.2 | 3.76 | 6.47 | 4.71 |

| Sequence | self-aminoacylation (biotinyl-Phe-oxazolone) | self-aminoacylation (biotinyl-Trp-oxazolone) | self-aminoacylation (biotinyl-Met-oxazolone) | self-aminoacylation (biotinyl-Ile-oxazolone) | self-aminoacylation (biotinyl-Leu-oxazolone) | self-aminoacylation (biotinyl-Val-oxazolone) |
| --- | --- | --- | --- | --- | --- | --- |
| AUCCACCUAGUUCAUCGGGUG [Fam2.2 aminoacylation ribozyme variant] | 24.1 | 4.63 | 3.53 | 2.9 | 4.83 | 3.24 |
| AUCCACGUAGGUCAUCGGGUG [Fam2.2 aminoacylation ribozyme variant] | 37.4 | 4.86 | 4.61 | 3.4 | 4.88 | 4.96 |
| AUCCACUUAGGUCAUCGGGUG [Fam2.2 aminoacylation ribozyme variant] | 63.8 | 7.26 | 6.88 | 5.19 | 8.6 | 4.85 |
| AUCCCCCUAGGUCAUCGGGUG [Fam2.2 aminoacylation ribozyme variant] | 132 | 12.6 | 13.3 | 8.62 | 17.6 | 8.74 |
| AUGACCCUGGUCAACGAGUGA [Fam2.1 aminoacylation ribozyme variant] | 32.5 | 6.86 | 5.77 | 3.48 | 6.02 | 3.52 |
| AUGACCCUGGUCAUCGAGUUA [Fam2.1 aminoacylation ribozyme variant] | 9.13 | 3.71 | 6.25 | 2.81 | 5.29 | 2.44 |
| AUGACCCUGGUCAUCGCGUGA [Fam2.1 aminoacylation ribozyme variant] | 126 | 19.7 | 16 | 7.46 | 17.1 | 7.53 |
| AUGACUCUGGUCAUCGAGUGA [Fam2.1 aminoacylation ribozyme variant] | 23.2 | 5.56 | 4.86 | 2.62 | 5.16 | 2.75 |
| AUGAUUGCUAAUAGUCGCAAG [Fam3.1 aminoacylation ribozyme variant] | 2.06 | 1.61 | 1.67 | 1.34 | 1.53 | 1.24 |
| AUGCACCAAGGUCAUCGGGUG [Fam2.2 aminoacylation ribozyme variant] | 59.9 | 9.96 | 7.84 | 4.95 | 9.2 | 5.23 |
| AUGCACCUAGAUCAUCGGGUG [Fam2.2 aminoacylation ribozyme variant] | 10.6 | 3.8 | 2.41 | 2.13 | 2.64 | 2.69 |
| AUGCACCUAGGACAUCGGGUG [Fam2.2 aminoacylation ribozyme variant] | 19.4 | 5.58 | 3.57 | 3.37 | 4.43 | 2.54 |
| AUGCACCUAGGGCAUCGGGUG [Fam2.2 aminoacylation ribozyme variant] | 30.6 | 4.75 | 3.04 | 2.89 | 3.16 | 3.46 |
| AUGCACCUAGGUCAUCGAGUG [Fam2.2 aminoacylation ribozyme variant] | 4.83 | 3.75 | 3.33 | 2.61 | 3.96 | 2.56 |
| AUGCACCUAGGUCAUCGGGAG [Fam2.2 aminoacylation ribozyme variant] | 1.08 | 1.94 | 1.39 | 1.56 | 1.54 | 1.51 |
| AUGCACCUAGGUCAUCGGUUG [Fam2.2 aminoacylation ribozyme variant] | 5.04 | 1.48 | 1.26 | 1.42 | 1.28 | 1.24 |
| AUGCACCUAGGUCAUCGUGUG [Fam2.2 aminoacylation ribozyme variant] | 4.56 | 0.926 | 1.18 | 1.04 | 0.934 | 1.04 |
| AUGCACCUAGGUCCUCGGGUG [Fam2.2 aminoacylation ribozyme variant] | 27.2 | 5.64 | 3.7 | 3.44 | 5.43 | 3.19 |
| AUGCACCUAGGUCGUCGGGUG [Fam2.2 aminoacylation ribozyme variant] | 8.26 | 2.39 | 1.75 | 1.68 | 2.42 | 1.8 |
| AUGCACCUAUGUCAUCGGGUG [Fam2.2 aminoacylation ribozyme variant] | 26.4 | 4.24 | 4.11 | 2.81 | 5.19 | 2.48 |
| AUGCACCUCGGUCAUCGGGUG [Fam2.2 aminoacylation ribozyme variant] | 32.6 | 6.81 | 5.38 | 4.1 | 6.47 | 3.86 |
| AUGCACCUGGGUCAUCGGGUG [Fam2.2 aminoacylation ribozyme variant] | 21.2 | 3.63 | 4.33 | 3.37 | 3.18 | 3.8 |
| AUGCAUCUAGGUCAUCGGGUG [Fam2.2 aminoacylation ribozyme variant] | 57 | 9.62 | 8.33 | 5.83 | 9.38 | 5.41 |
| AUGCCCCUGGUCAUCGAGUGA [Fam2.1 aminoacylation ribozyme variant] | 38.4 | 10 | 9.73 | 5.14 | 10.2 | 5.59 |
| AUGCUCCUAGGUCAUCGGGUG [Fam2.2 aminoacylation ribozyme variant] | 37.6 | 7.13 | 7.47 | 5.26 | 8.92 | 4.4 |
